In patent US20260027208A1 (published 2026):
Read-outs that look alike come from different tables or passages of the source.

Tests used:
[1] = target: T1, KRAS G12D mutant peptide presented by HLA-A*11:01 on cells (human); assay: cell-based or functional assay
[2] = target: T1, KRAS G12D mutant peptide presented by …; assay: cell-based or functional assay; remark: listed apart in the source
[3] = target: T2, KRAS G12D peptide on HLA-A*11:01 (human); assay: CD137 by flow cytometry; transduced primary CD4+ and CD8+ T cells, TRAC/TRBC double knockout; G12D peptide titrated (FIG. 3D); full-length, on cells
T2 peptide: VVVGADGVGK
Experimental: (§1) Primary CD4+ and CD8+ T cells were transduced with a KRAS-G12D-specific T cell receptor (TCR69, TCR79, TCR80, TCR81, or TCR91), and were either edited to knockout TRAC and TRBC or left with unmodified TRAC and TRBC genes, and expanded for several days. Engineered T cells were incubated with G12D peptide at decreasing concentrations and T cell responses were assessed by measuring CD137 expression.
(§2) In additional experiments, the effect of TRAC and TRBC knockout was evaluated for primary CD4+ and CD8+ T cells transduced with further KRAS-G12D-specific TCRs. The double knockout improved TCR avidity for multiple TCRs as shown in FIG. 3C (corresponding EC50 values in TABLE 2 and Cmax values in TABLE 3), FIG. 3D (corresponding EC50 values in TABLE 4), and FIG. 3E (corresponding EC50 values in TABLE 5).

[4] = target: T2, KRAS G12D peptide on HLA-A*11:01; assay: CD137 by flow cytometry; transduced primary CD4+ and CD8+ T cells, TRAC/TRBC wild type; G12D peptide titrated (FIG. 3D); full-length, on cells
Experimental: as §1, §2

[5] = target: T2, KRAS G12D peptide on HLA-A*11:01; assay: CD137 by flow cytometry; transduced primary CD4+ and CD8+ T cells, TRAC/TRBC double knockout; G12D peptide titrated (FIG. 3E); full-length, on cells
Experimental: as §1, §2

[6] = target: T2, KRAS G12D peptide on HLA-A*11:01; assay: CD137 by flow cytometry; transduced primary CD4+ and CD8+ T cells, TRAC/TRBC wild type; G12D peptide titrated (FIG. 3E); full-length, on cells
Experimental: as §1, §2

B1: TCR1 (TCR)
TCR alpha: GDSVTQMEGPVTLSEEAFLTINCTYTATGYPSLFWYVQYPGEGLQLLLKATKADDKGSNKGFEATYRKETTSFHLEKGSVQVSDSAVYFCALSDRVGGARLMFGDGTQLVVKPNIQNPDPAVYQLRDSKSSDKSVCLFTDFDSQTNVSQSKDSDVYITDKCVLDMRSMDFKSNSAVAWSNKSDFACANAFNNSIIPEDTFFPSPESSCDVKLVEKSFETDTNLNFQNLSVIGFRILLLKVAGFNLLMTLRLWSS
TCR beta: DIYQTPRYLVIGTGKKITLECSQTMGHDKMYWYQQDPGMELHLIHYSYGVNSTEKGDLSSESTVSRIRTEHFPLTLESARPSHTSQYLCASSEGLYNEQFFGPGTRLTVLEDLKNVFPPEVAVFEPSEAEISHTQKATLVCLATGFYPDHVELSWWVNGKEVHSGVCTDPQPLKEQPALNDSRYCLSSRLRVSATFWQNPRNHFRCQVQFYGLSENDEWTQDRAKPVTQIVSAEAWGRADCGFTSESYQQGVLSATILYEILLGKATLYAVLVSALVLMAMVKRKDSRG
[1]
  T cell activation EC50 (CD137 vs G12D peptide dose), TRAC/TRBC double knockout T cells: 12.2 nM
  T cell activation EC50 (CD137 vs G12D peptide dose), WT TRAC/TRBC T cells: 51.1 nM
[2]
  T cell activation EC50 (CD137 vs G12D peptide dose), TRAC/TRBC double knockout T cells: 64.1 nM
  T cell activation EC50 (CD137 vs G12D peptide dose), WT TRAC/TRBC T cells: 119 nM

B2: TCR2 (TCR)
TCR alpha: AQTVTQSQPEMSVQEAETVTLSCTYDTSENNYYLFWYKQPPSRQMILVIRQEAYKQQNATENRFSVNFQKAAKSFSLKISDSQLGDTAMYFCAFMYPSQGGSEKLVFGKGMKLTVNPNIQNPDPAVYQLRDSKSSDKSVCLFTDFDSQTNVSQSKDSDVYITDKCVLDMRSMDFKSNSAVAWSNKSDFACANAFNNSIIPEDTFFPSPESSCDVKLVEKSFETDTNLNFQNLSVIGFRILLLKVAGFNLLMTLRLWSS
TCR beta: MGPGLLCWVLLCLLGAGSVETGVTQSPTHLIKTRGQQVTLRCSSQSGHNTVSWYQQALGQGPQFIFQYYREEENGRGNFPPRFSGLQFPNYSSELNVNALELDDSALYLCASSSPGFRSYGYTFGSGTRLTVVEDLKNVFPPEVAVFEPSEAEISHTQKATLVCLATGFYPDHVELSWWVNGKEVHSGVCTDPQPLKEQPALNDSRYCLSSRLRVSATFWQNPRNHFRCQVQFYGLSENDEWTQDRAKPVTQIVSAEAWGRADCGFTSESYQQGVLSATILYEILLGKATLYAVLVSALVLMAMVKRKDSRG
[1]
  T cell activation EC50 (CD137 vs G12D peptide dose), TRAC/TRBC double knockout T cells: 7.3 nM
  T cell activation EC50 (CD137 vs G12D peptide dose), WT TRAC/TRBC T cells: 22.2 nM
[2]
  Cmax (%) of CD137 T cell activation by G12D peptide, without knockout of TRAC and TRBC: 42.7%
  T cell activation EC50 (CD137 vs G12D peptide dose), TRAC/TRBC double knockout T cells: 10.1 nM
  T cell activation EC50 (CD137 vs G12D peptide dose), WT TRAC/TRBC T cells: 31.6 nM

B3: TCR6 (TCR)
TCR alpha: GQQLNQSPQSMFIQEGEDVSMNCTSSSIFNTWLWYKQDPGEGPVLLIALYKAGELTSNGRLTAQFGITRKDSFLNISASIPSDVGIYFCAGRREGAQKLVFGQGTRLTINPNIQNPDPAVYQLRDSKSSDKSVCLFTDFDSQTNVSQSKDSDVYITDKCVLDMRSMDFKSNSAVAWSNKSDFACANAFNNSIIPEDTFFPSPESSCDVKLVEKSFETDTNLNFQNLSVIGFRILLLKVAGFNLLMTLRLWSS
TCR beta: GAGVSQSPRYKVAKRGQDVALRCDPISGHVSLFWYQQALGQGPEFLTYFQNEAQLDKSGLPSDRFFAERPEGSVSTLKIQRTQQEDSAVYLCASSSTLMGVNIQYFGAGTRLSVLEDLKNVFPPEVAVFEPSEAEISHTQKATLVCLATGFYPDHVELSWWVNGKEVHSGVCTDPQPLKEQPALNDSRYCLSSRLRVSATFWQNPRNHFRCQVQFYGLSENDEWTQDRAKPVTQIVSAEAWGRADCGFTSESYQQGVLSATILYEILLGKATLYAVLVSALVLMAMVKRKDSRG
[1]
  T cell activation EC50 (CD137 vs G12D peptide dose), TRAC/TRBC double knockout T cells: 6.4 nM
  T cell activation EC50 (CD137 vs G12D peptide dose), WT TRAC/TRBC T cells: 12.2 nM
[2]
  T cell activation EC50 (CD137 vs G12D peptide dose), TRAC/TRBC double knockout T cells: 14.3 nM
  T cell activation EC50 (CD137 vs G12D peptide dose), WT TRAC/TRBC T cells: 24 nM

B4: TCR6 (TCR, V domains shown)
Valpha: GQQLNQSPQSMFIQEGEDVSMNCTSSSIFNTWLWYKQDPGEGPVLLIALYKAGELTSNGRLTAQFGITRKDSFLNISASIPSDVGIYFCAGRREGAQKLVFGQGTRLTINP
Vbeta: GAGVSQSPRYKVAKRGQDVALRCDPISGHVSLFWYQQALGQGPEFLTYFQNEAQLDKSGLPSDRFFAERPEGSVSTLKIQRTQQEDSAVYLCASSSTLMGVNIQYFGAGTRLSVL
[3]
  EC50 of peptide: 6.4 nM
[4]
  EC50 of peptide: 12.2 nM
[5]
  EC50 of peptide: 14.3 nM
[6]
  EC50 of peptide: 24 nM

B5: TCR4 (TCR)
TCR alpha: QKEVEQDPGPLSVPEGAIVSLNCTYSNSAFQYFMWYRQYSRKGPELLMYTYSSGNKEDGRFTAQVDKSSKYISLFIRDSQPSDSATYLCAMGALNSGAGSYQLTFGKGTKLSVIPNIQNPDPAVYQLRDSKSSDKSVCLFTDFDSQTNVSQSKDSDVYITDKCVLDMRSMDFKSNSAVAWSNKSDFACANAFNNSIIPEDTFFPSPESSCDVKLVEKSFETDTNLNFQNLSVIGFRILLLKVAGFNLLMTLRLWSS
TCR beta: KAGVTQTPRYLIKTRGQQVTLSCSPISGHRSVSWYQQTPGQGLQFLFEYFSETQRNKGNFPGRFSGRQFSNSRSEMNVSTLELGDSALYLCASSLSSGTGTEAFFGQGTRLTVEDLKNVFPPEVAVFEPSEAEISHTQKATLVCLATGFYPDHVELSWWVNGKEVHSGVCTDPQPLKEQPALNDSRYCLSSRLRVSATFWQNPRNHFRCQVQFYGLSENDEWTQDRAKPVTQIVSAEAWGRADCGFTSESYQQGVLSATILYEILLGKATLYAVLVSALVLMAMVKRKDSRG
[1]
  T cell activation EC50 (CD137 vs G12D peptide dose), TRAC/TRBC double knockout T cells: 4.4 nM
  T cell activation EC50 (CD137 vs G12D peptide dose), WT TRAC/TRBC T cells: 31.1 nM
[2]
  Cmax (%) of CD137 T cell activation by G12D peptide, without knockout of TRAC and TRBC: 16%
  T cell activation EC50 (CD137 vs G12D peptide dose), TRAC/TRBC double knockout T cells: 11.8 nM
  T cell activation EC50 (CD137 vs G12D peptide dose), WT TRAC/TRBC T cells: 49.8 nM

B6: TCR91 (TCR)
TCR alpha: AQKVTQAQTEISVVEKEDVTLDCVYETRDTTYYLFWYKQPPSGELVFLIRRNSFDEQNEISGRYSWNFQKSTSSFNFTITASQVVDSAVYFCALNEGGGSTLGRLYFGRGTQLTVWPDIQNPDPAVYQLRDSKSSDKSVCLFTDFDSQTNVSQSKDSDVYITDKCVLDMRSMDFKSNSAVAWSNKSDFACANAFNNSIIPEDTFFPSPESSCDVKLVEKSFETDTNLNFQNLSVIGFRILLLKVAGFNLLMTLRLWSS
TCR beta: MGPGLLHWMALCLLGTGHGDAMVIQNPRYQVTQFGKPVTLSCSQTLNHNVMYWYQQKSSQAPKLLFHYYDKDFNNEADTPDNFQSRRPNTSFCFLDIRSPGLGDAAMYLCATSTGRVYQPQHFGDGTRLSILEDLNKVFPPEVAVFEPSEAEISHTQKATLVCLATGFFPDHVELSWWVNGKEVHSGVCTDPQPLKEQPALNDSRYCLSSRLRVSATFWQNPRNHFRCQVQFYGLSENDEWTQDRAKPVTQIVSAEAWGRADCGFTSVSYQQGVLSATILYEILLGKATLYAVLVSALVLMAMVKRKDFGGSG
[1]
  T cell activation EC50 (CD137 vs G12D peptide dose), TRAC/TRBC double knockout T cells: 14.4 nM
  T cell activation EC50 (CD137 vs G12D peptide dose), WT TRAC/TRBC T cells: 179 nM
[2]
  Cmax (%) of CD137 T cell activation by G12D peptide, without knockout of TRAC and TRBC: 14.4%
  T cell activation EC50 (CD137 vs G12D peptide dose), TRAC/TRBC double knockout T cells: 36.5 nM
  T cell activation EC50 (CD137 vs G12D peptide dose), WT TRAC/TRBC T cells: 131 nM

B7: TCR1 (TCR, V domains shown)
Valpha: GDSVTQMEGPVTLSEEAFLTINCTYTATGYPSLFWYVQYPGEGLQLLLKATKADDKGSNKGFEATYRKETTSFHLEKGSVQVSDSAVYFCALSDRVGGARLMFGDGTQLVVKP
Vbeta: EADIYQTPRYLVIGTGKKITLECSQTMGHDKMYWYQQDPGMELHLIHYSYGVNSTEKGDLSSESTVSRIRTEHFPLTLESARPSHTSQYLCASSEGLYNEQFFGPGTRLTVL
[3]
  EC50 of peptide: 12.2 nM
[4]
  EC50 of peptide: 51.1 nM
[5]
  EC50 of peptide: 64.1 nM
[6]
  EC50 of peptide: 119 nM

B8: TCR5 (TCR)
TCR alpha: RGEDVEQSLFLSVREGDSSVINCTYTDSSSTYLYWYKQEPGAGLQLLTYIFSNMDMKQDQRLTVLLNKKDKHLSLRIADTQTGDSAIYFCAERDAGNNRKLIWGLGTSLAVNPNIQNPDPAVYQLRDSKSSDKSVCLFTDFDSQTNVSQSKDSDVYITDKCVLDMRSMDFKSNSAVAWSNKSDFACANAFNNSIIPEDTFFPSPESSCDVKLVEKSFETDTNLNFQNLSVIGFRILLLKVAGFNLLMTLRLWSS
TCR beta: GAGVSQSPRYKVAKRGQDVALRCDPISGHVSLFWYQQALGQGPEFLTYFQNEAQLDKSGLPSDRFFAERPEGSVSTLKIQRTQQEDSAVYLCASSLEGGDTQYFGPGTRLTVLEDLKNVFPPEVAVFEPSEAEISHTQKATLVCLATGFYPDHVELSWWVNGKEVHSGVCTDPQPLKEQPALNDSRYCLSSRLRVSATFWQNPRNHFRCQVQFYGLSENDEWTQDRAKPVTQIVSAEAWGRADCGFTSESYQQGVLSATILYEILLGKATLYAVLVSALVLMAMVKRKDSRG
[1]
  T cell activation EC50 (CD137 vs G12D peptide dose), TRAC/TRBC double knockout T cells: 9.4 nM
  T cell activation EC50 (CD137 vs G12D peptide dose), WT TRAC/TRBC T cells: 37.8 nM
[2]
  Cmax (%) of CD137 T cell activation by G12D peptide, without knockout of TRAC and TRBC: 23.9%
  T cell activation EC50 (CD137 vs G12D peptide dose), TRAC/TRBC double knockout T cells: 7.6 nM
  T cell activation EC50 (CD137 vs G12D peptide dose), WT TRAC/TRBC T cells: 36.3 nM
